The experiment addresses T1, human complement component C5 (Homo sapiens, UniProt P01031).
T1 construct: complement C5 beta chain, human, cut product of the C5 precursor; complement C5 alpha chain, human, cut product of the C5 precursor; also called Human C5; C5 antigen; source: purified as described previously (Laursen et al., 2010; Schatz-Jakobsen et al., 2016)
Briefly: BLI; Octet RED; histidine-tagged Nbs immobilised on Anti-Penta-HIS biosensors at 2.5 µg/ml; C5 62.5 to 2000 nM in PBS; association 700 s, dissociation 1800 s; global fit. The conditions noted are these: both partners purified. (Biolayer interferometry detects binding as a change in optical thickness at a sensor tip.)

Residue numbers refer to the chain shown, from its start.

B1: native Nb36 nanobody (VHH)
VHH: QVQLVESGGGLVQAGGSLRLSCVVSGSAVSDYAMGWYRQAPGKQRELVAAIYNSGRTNYVDSVKGRFTISKDNAKKTVYLQMNSLKPEDTADYFCNLLGATTMSNAVWGQGTQVTVSS
notes: Selected by phage display from a llama immunised with human C5; construct in pET-22b(+) with an N-terminal PelB signal for secretion into the periplasm; also called nonmodified Nb36; Nb36-Nat1; source: E. coli LOBSTR, purified (Ni Sepharose, Superdex 75); not shown: 6xHis, C-terminal, kept
Regarding B1, the dissociation constant Kd – broadly, the constant that tells how readily two partners part at equilibrium – was approximately 86 nM.

B2: PCMB-labelled Nb36-C85 (VHH)
VHH: B1 VHH with S84C
notes: as the VHH of m1 with Ser85Cys (position 82b in the Kabat nomenclature); Construct in pET-22b(+) with an N-terminal PelB signal for secretion into the periplasm; In the crystals the benzoate moiety of PCMB was not seen; also called Nb36 Ser85Cys labelled with PCMB; Hg-labelled Nb36-C85; source: E. coli LOBSTR, purified (Ni Sepharose, Superdex 75), labelled with PCMB; not shown: 6xHis, C-terminal, …
Take B2: the Kd is approximately 37 nM.

Source of the values: paper PMC5633906, “Introducing site-specific cysteines into nanobodies for mercury labelling allows de novo phasing of their crystal structures” (Acta Crystallographica. Section D, Structural Biology, 2017).
